According to publication PMC9787417 (Pathogens, 2022):

What was measured:
[1] = biological target: 14-3-3β (Homo sapiens) (UniProt P31946); conditions: cited from earlier work
[2] = biological target: the molecule itself; assay: mass photometry

Sequence of 14-3-3β (Homo sapiens) (P31946 2-246): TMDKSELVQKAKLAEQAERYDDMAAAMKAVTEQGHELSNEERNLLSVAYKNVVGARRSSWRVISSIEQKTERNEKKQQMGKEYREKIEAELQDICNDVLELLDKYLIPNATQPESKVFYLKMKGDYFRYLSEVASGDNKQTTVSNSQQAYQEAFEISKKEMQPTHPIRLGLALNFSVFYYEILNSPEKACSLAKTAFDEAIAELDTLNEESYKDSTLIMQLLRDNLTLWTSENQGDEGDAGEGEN

## ExoS ART domain (from UniProt G3XDA1)
[1]
  Kd: 0.04 µM

B1: human 14-3-3β, individually expressed, with affinity tag (natural protein)
chain: MTMDKSELVQKAKLAEQAERYDDMAAAMKAVTEQGHELSNEERNLLSVAYKNVVGARRSSWRVISSIEQKTERNEKKQQMGKEYREKIEAELQDICNDVLELLDKYLIPNATQPESKVFYLKMKGDYFRYLSEVASGDNKQTTVSNSQQAYQEAFEISKKEMQPTHPIRLGLALNFSVFYYEILNSPEKACSLAKTAFDEAIAELDTLNEESYKDSTLIMQLLRDNLTLWTSENQGDEG
notes: also called purified 14-3-3β
[2]
  stoichiometry N: 2

B2: human 14-3-3β, un-tagged, co-expressed with the exotoxin ART domains (natural protein)
chain: MTMDKSELVQKAKLAEQAERYDDMAAAMKAVTEQGHELSNEERNLLSVAYKNVVGARRSSWRVISSIEQKTERNEKKQQMGKEYREKIEAELQDICNDVLELLDKYLIPNATQPESKVFYLKMKGDYFRYLSEVASGDNKQTTVSNSQQAYQEAFEISKKEMQPTHPIRLGLALNFSVFYYEILNSPEKACSLAKTAFDEAIAELDTLNEESYKDSTLIMQLLRDNLTLWTSENQGDEG
[2]
  stoichiometry N: 2
